# Measured values taken from patent publication US20120202890A1, “POLYMER-CARBOHYDRATE-LIPID CONJUGATES” (priority 2011, published 2012).
# Ends that are not written are not given here.
# Key:
# [1] = Stability of peptide solution by HPLC assay; format: physicochemical
# Method: Stability experiment was carried out by HPLC assay and a custom synthesized thermolabile peptide with the following sequence was used as the model compound: […] The peptide was added to selected media and sonicated for 10 minutes. The sample solutions were filtered through passed through 0.22-μm pore-size filter to remove dust particles before the HPLC assay. A Simadzu 10avp chromatography system with a Kinetex C18 (2.6 μm, 100×4.6 mm i.d.) column (Phenomenex, Torrance, Calif.) were used. The solutions were kept at 25° C. in the Autosampler during the assay and the mobile phase consisted of 0.1% of trifluoroacetic acid and acetonitrile mixture (v/v, 80/20) with a flow rate of 1.0 mL/min. The peptide peak was monitored at 210 nm and quantitated using external standard sets of the peptide.
# The plots were the % recovery vs. time.
# [2] = Physical state of Propofol formulations with PEG-carbohydrate-lipid (solution, suspension or emulsion); format: physicochemical
# Method: A propofol solution suitable for intravenous delivery is prepared as follows. 5% (w/v) of OAPDL-PEG in Saline was added to a vessel equipped with a mixer propeller and 2% (w/v) of Propofol was added with constant mixing at ambient room temperature. Mixing was continued until the drug was visually dispersed. Equal volume of Saline was added to the vessel with adequate mixing. Mixing continued for another 30 minutes or until a homogenous solution was achieved. A sample formulation is described in Table 15.
# In Example 16, less concentrated or less purified PEG-sugar-lipid will create a suspension instead of an aqueous solution. For instance, the final concentration of the PEG-carbohydrate-lipid is less than 1.5% (w/v), it will form a suspension. Similarly when the oligomer purity is 80% or less, regardless the concentration of the PEG-carbohydrate-lipid, an emulsified solution will be observed instead of a transparent solution.
# Propofol as the active agent was formulated with various polymer-lipid-carbohydrate conjugates described in the present invention. At a lower of the polymer-lipid-carbohydrate conjugate concentration, i.e., OAPDL-11 (<1.5%), the formulation is a microemulsion and at a higher OAPDL-11 concentration (≧2.2%), it is a true solution.
# A solution is defined as a homogenous mixture of substances with variable composition. […]
# [3] = Body weight change as evidence of renal toxicity of cisplatin, intravenous dosing; format: in vivo, mice (B6D2F1); conditions: animal experiments, mice
# Method: Groups of four each of mixed gender mice (B6D2F1), […] and weights of 22 to 30 grams) were studied in duplicate. Each mouse was administrated cisplatin intravenously at a dose of 10 mg/kg (Table 16) and Intraperitoneally at a dose of 15 mg/kg (Table 17). The changes in body weights observed can be used as a direct evident in the renal toxicity effects.
Substance,"peptide degradation ([1]; in a 50 mM of phosphate buffer, in 24 hours)","peptide still remaining ([1]; in a 2% of PEG-carbohydrate-lipid, after 24 hours)",physical state of Propofol formulation ([2]; higher OAPDL-11 concentration (≧2.2%)),physical state of Propofol formulation ([2]; lower OAPDL-11 concentration (<1.5%)),intravenous hydration effect for reducing renal toxicity of cisplatin [3]
"FPKLSHGCNKHSRKHPYMTF [peptide, custom synthesized thermolabile peptide used as the model compound]",degraded significantly,more than 97%,,,
"oleoyi-N-(3-aminopropyl)propane-1,3-diamine-Undecaethylene glycol methyl ether Lactobionate [OAPDL-11]",,,true solution,microemulsion,better than free sugars
